The data set is described as follows: total protein half-life in vivo (active degradation + dilution); higher = more stable protein.
Where [1] appears, read: E. coli NCM3722 delta-clpP, growth: N-lim chemostat, doubling time 6 h.
The mark [2] stands for this setting: E. coli NCM3722 delta-smpB, growth: N-lim chemostat, doubling time 6 h.
Where [3] appears, read: wild type E. coli NCM3722, growth: C-lim chemostat, doubling time 6 h.
[4] abbreviates: wild type E. coli NCM3722, growth: C-lim chemostat, doubling time 12 h.
Where [5] appears, read: wild type E. coli NCM3722, growth: N-lim chemostat, doubling time 6 h.
Setting [6] is: wild type E. coli NCM3722, growth: N-lim chemostat, doubling time 12 h.
Where [7] appears, read: wild type E. coli NCM3722, growth: P-lim chemostat, doubling time 12 h.
Where [8] appears, read: E. coli NCM3722 delta-clpP delta-lon delta-hslV, growth: N-lim chemostat, doubling time 6 h.
Setting [9] is: E. coli NCM3722 delta-hslV, growth: N-lim chemostat, doubling time 6 h.
The mark [10] stands for this setting: E. coli NCM3722 delta-lon, growth: N-lim chemostat, doubling time 6 h.
Setting [11] is: wild type E. coli NCM3722, growth: C-lim chemostat, doubling time 3 h.
Where [12] appears, read: wild type E. coli NCM3722, growth: P-lim chemostat, doubling time 6 h.

± gives the standard deviation of the averaged measurements. Where only a bound is given, the exact number is not on record here.

Take “MSSQYLRIFQQPRSAILLILGFASGLPLALTSGTLQAWMTVENIDLKTIGFFSLVGQAYVFKFLWSPLMDRYTPPFFGRRRGWLLATQILLLVAIAAMGFLEPGTQLRWMAALAVVIAFCSASQDIVFDAWKTDVLPAEERGAGAAISVLGYRLGMLVSGGLALWLADKWLGWQGMYWLMAALLIPCIIATLLAPEPTDTIPVPKTLEQAVVAPLRDFFGRNNAWLILLLIVLYKLGDAFAMSLTTTFLIRGVGFDAGEVGVVNKTLGLLATIVGALYGGILMQRLSLFRALLIFGILQGASNAGYWLLSITDKHLYSMGAAVFFENLCGGMGTSAFVALLMTLCNKSFSATQFALLSALSAVGRVYVGPVAGWFVEAHGWSTFYLFSVAAAVPGLILLLVCRQTLEYTRVNDNFISRTAYPAGYAFAMWTLAAGVSLLAVWLLLLTMDALDLTHFSFLPALLEVGVLVALSGVVLGGLLDYLALRKTHLT [P0AE16]”: the “total protein half-life in vivo” value was 5.97 h under setting [1]; 6.24 h under setting [2]; 4.45 h under setting [3]; 4.64 h under setting [4]; 6.55 h under setting [5]; 12.4 ± 4.7 h under setting [6]. Also, the “total protein half-life in vivo” value under setting [7] was 10.3 ± 1.2 h.
Consider “MIAELFTNNALNLVIIFGSCAALILMSFWFRRGNRKRKGFLFHAVQFLIYTIIISAVGSIINYVIENYKLKFITPGVIDFICTSLIAVILTIKLFLLINQFEKQQIKKGRDITSARIMSRIIKITIIVVLVLLYGEHFGMSLSGLLTFGGIGGLAVGMAGKDILSNFFSGIMLYFDRPFSIGDWIRSPDRNIEGTVAEIGWRITKITTFDNRPLYVPNSLFSSISVENPGRMTNRRITTTIGLRYEDAAKVGVIVEAVREMLKNHPAIDQRQTLLVYFNQFADSSLNIMVYCFTKTTVWAEWLAAQQDVYLKIIDIVQSHGADFAFPSQTLYMDNITPPEQGR [P0AEB5]”, for which the “total protein half-life in vivo” value under setting [8] came out at 6.12 ± 0.49 h; the “total protein half-life in vivo” value under setting [1] was 6.41 ± 0.17 h; the “total protein half-life in vivo” value under setting [9] was determined as 6.48 ± 0.5 h; the “total protein half-life in vivo” value under setting [10] turned out to be 6.71 ± 0.27 h; the “total protein half-life in vivo” value under setting [2] amounted to 6.07 ± 0.36 h; the “total protein half-life in vivo” value under setting [11] was found to be 3.02 ± 0.1 h. Moreover, the “total protein half-life in vivo” value came to 6.34 ± 0.4 h under setting [3]; 11.9 ± 0.12 h under setting [4]; 6.02 ± 0.14 h under setting [5]; 12.7 ± 1.4 h under setting [6]; 5.86 ± 0.78 h under setting [12].
Turning to “MAAQGFLLIATFLLVLMVLARPLGSGLARLINDIPLPGTTGVERVLFRALGVSDREMNWKQYLCAILGLNMLGLAVLFFMLLGQHYLPLNPQQLPGLSWDLALNTAVSFVTNTNWQSYSGETTLSYFSQMAGLTVQNFLSAASGIAVIFALIRAFTRQSMSTLGNAWVDLLRITLWVLVPVALLIALFFIQQGALQNFLPYQAVNTVEGAQQLLPMGPVASQEAIKMLGTNGGGFFNANSSHPFENPTALTNFVQMLAIFLIPTALCFAFGEVMGDRRQGRMLLWAMSVIFVICVGVVMWAEVQGNPHLLALGTDSSINMEGKESRFGVLVSSLFAVVTTAASCGAVIAMHDSFTALGGMVPMWLMQIGEVVFGGVGSGLYGMMLFVLLAVFIAGLMIGRTPEYLGKKIDVREMKLTALAILVTPTLVLMGAALAMMTDAGRSAMLNPGPHGFSEVLYAVSSAANNNGSAFAGLSANSPFWNCLLAFCMFVGRFGVIIPVMAIAGSLVSKKSQAASSGTLPTHGPLFVGLLIGTVLLVGALTFIPALALGPVAEYLS”, the “total protein half-life in vivo” value under setting [12] was 5.85 h.
On to “MQENQQITKKEQYNLNKLQKRLRRNVGEAIADFNMIEEGDRIMVCLSGGKDSYTMLEILRNLQQSAPINFSLVAVNLDQKQPGFPEHVLPEYLEKLGVEYKIVEENTYGIVKEKIPEGKTTCSLCSRLRRGILYRTATELGATKIALGHHRDDILQTLFLNMFYGGKMKGMPPKLMSDDGKHIVIRPLAYCREKDIQRFADAKAFPIIPCNLCGSQPNLQRQVIADMLRDWDKRYPGRIETMFSAMQNVVPSHLCDTNLFDFKGITHGSEVVNGGDLAFDREEIPLQPACWQPEEDENQLDELRLNVVEVK”, for which the “total protein half-life in vivo” value was 5.11 ± 0.8 h under setting [8]; 3.63 ± 0.23 h under setting [1]; 0.983 ± 0.28 h under setting [9]; 1.44 h under setting [10]; 1.0485 ± 0.00067 h under setting [2]; 1.63 ± 0.051 h under setting [11]. Moreover, the “total protein half-life in vivo” value is 2.26 ± 0.035 h under setting [3]; 2.85 ± 0.35 h under setting [4]; 1.26 h under setting [5]; 1.58 ± 0.57 h under setting [6]; 2.23 ± 0.24 h under setting [12]; 4.26 ± 0.73 h under setting [7].
On to “MFTKRHRITLLFNANKAYDRQVVEGVGEYLQASQSEWDIFIEEDFRARIDKIKDWLGDGVIADFDDKQIEQALADVDVPIVGVGGSYHLAESYPPVHYIATDNYALVESAFLHLKEKGVNRFAFYGLPESSGKRWATEREYAFRQLVAEEKYRGVVYQGLETAPENWQHAQNRLADWLQTLPPQTGIIAVTDARARHILQVCEHLHIPVPEKLCVIGIDNEELTRYLSRVALSSVAQGARQMGYQAAKLLHRLLDKEEMPLQRILVPPVRVIERRSTDYRSLTDPAVIQAMHYIRNHACKGIKVDQVLDAVGISRSNLEKRFKEEVGETIHAMIHAEKLEKARSLLISTTLSINEISQMCGYPSLQYFYSVFKKAYDTTPKEYRDVNSEVML [P0ACI3]”, for which the “total protein half-life in vivo” value by setting is: under setting [8], 5.66 ± 0.54 h; under setting [1], 5.86 ± 0.86 h; under setting [10], 3.81 ± 0.22 h; under setting [2], 3.05 ± 0.42 h; under setting [11], 2.89 ± 0.14 h; under setting [3], 5.27 ± 0.069 h. In addition, the “total protein half-life in vivo” value reads like this: under setting [4], 9.26 ± 0.14 h; under setting [5], 3.78 ± 0.56 h; under setting [6], 4.44 ± 1.1 h; under setting [12], 5.4 ± 0.33 h; under setting [7], 9.78 ± 0.94 h.
For “MIEFVYPHTQLVAGVDEVGRGPLVGAVVTAAVILDPARPIAGLNDSKKLSEKRRLALYEEIKEKALSWSLGRAEPHEIDELNILHATMLAMQRAVAGLHIAPEYVLIDGNRCPKLPMPAMAVVKGDSRVPEISAASILAKVTRDAEMAALDIVFPQYGFAQHKGYPTAFHLEKLAEHGATEHHRRSFGPVKRALGLAS”, the “total protein half-life in vivo” value runs as follows: under setting [1], 1.93 h; under setting [9], 1.11 h; under setting [10], 2.38 ± 0.2 h; under setting [2], 1.39 ± 0.024 h; under setting [11], 1.7 ± 0.042 h; under setting [3], 2.67 ± 0.43 h. The “total protein half-life in vivo” value reads like this: under setting [4], 3.19 h; under setting [5], 1.19 h; under setting [6], 1.91 h; under setting [12], 1.43 h; under setting [7], 2.12 ± 0.71 h.
Regarding “MKILRWLFALVMLIATTEAMAAGHSVDVYYGYNGDSRNIATFNLKIMMPSAVYVGEYKSSQWLMTGEILQNVSWSGPPPAPSVKLIGYHQNINKASCPGLPSGWNCGYYTFEVIVSAEIESYFSCPWLVIMNDSEASPGGVTYQGPDSHDTICPSVSVQPYDVSWNENYVSKSKLLTLQSTGGVVEKTLSTYLMKDGKLCDSTQMNETGGYCRWVAQMITFTASGCDKAEVSVTPNRHPITDKQLHDMVVRVDTSSMQPIDSTCRFQYILNEL”, the “total protein half-life in vivo” value by setting is: under setting [8], 4.06 ± 0.19 h; under setting [1], 4.43 h; under setting [10], 4.34 h; under setting [2], 5.02 ± 1.1 h; under setting [11], 3.03 ± 0.58 h; under setting [4], 6.01 h. For the same sequence, the “total protein half-life in vivo” value under setting [5] is 4.81 h, the “total protein half-life in vivo” value under setting [6] is greater than 16 h, the “total protein half-life in vivo” value under setting [12] came out at 4.43 h and the “total protein half-life in vivo” value under setting [7] amounted to 8.64 ± 0.17 h.
Turning to “MNNNDLFQASRRRFLAQLGGLTVAGMLGPSLLTPRRATAAQAATDAVISKEGILTGSHWGAIRATVKDGRFVAAKPFELDKYPSKMIAGLPDHVHNAARIRYPMVRVDWLRKRHLSDTSQRGDNRFVRVSWDEALDMFYEELERVQKTHGPSALLTASGWQSTGMFHNASGMLAKAIALHGNSVGTGGDYSTGAAQVILPRVVGSMEVYEQQTSWPLVLQNSKTIVLWGSDLLKNQQANWWCPDHDVYEYYAQLKAKVAAGEIEVISIDPVVTSTHEYLGREHVKHIAVNPQTDVPLQLALAHTLYSENLYDKNFLANYCVGFEQFLPYLLGEKDGQPKDAAWAEKLTGIDAETIRGLARQMAANRTQIIAGWCVQRMQHGEQWAWMIVVLAAMLGQIGLPGGGFGFGWHYNGAGTPGRKGVILSGFSGSTSIPPVHDNSDYKGYSSTIPIARFIDAILEPGKVINWNGKSVKLPPLKMCIFAGTNPFHRHQQINRIIEGLRKLETVIAIDNQWTSTCRFADIVLPATTQFERNDLDQYGNHSNRGIIAMKQVVPPQFEARNDFDIFRELCRRFNREEAFTEGLDEMGWLKRIWQEGVQQGKGRGVHLPAFDDFWNNKEYVEFDHPQMFVRHQAFREDPDLEPLGTPSGLIEIYSKTIADMNYDDCQGHPMWFEKIERSHGGPGSQKYPLHLQSVHPDFRLHSQLCESETLRQQYTVAGKEPVFINPQDASARGIRNGDVVRVFNARGQVLAGAVVSDRYAPGVARIHEGAWYDPDKGGEPGALCKYGNPNVLTIDIGTSQLAQATSAHTTLVEIEKYNGTVEQVTAFNGPVEMVAQCEYVPASQVKS”, the “total protein half-life in vivo” value runs as follows: under setting [10], 7.84 h; under setting [2], 5.54 h; under setting [11], 3.3 ± 0.074 h; under setting [3], 4.64 ± 2.7 h; under setting [4], 13.2 ± 1.9 h; under setting [5], 7.02 ± 0.15 h. The “total protein half-life in vivo” value came to 14 ± 1.4 h under setting [6], 6.85 ± 0.67 h under setting [12] and 12.6 ± 0.63 h under setting [7].
In the case of “MEQRRLASTEWVDIVNEENEVIAQASREQMRAQCLRHRATYIVVHDGMGKILVQRRTETKDFLPGMLDATAGGVVQADEQLLESARREAEEELGIAGVPFAEHGQFYFEDKNCRVWGALFSCVSHGPFALQEDEVSEVCWLTPEEITARCDEFTPDSLKALALWMKRNAKNEAVETETAE”, the “total protein half-life in vivo” value stood at 5.19 ± 0.16 h under setting [8]; 4.78 ± 0.093 h under setting [1]; 2.3 ± 0.074 h under setting [9]; 2.72 ± 0.38 h under setting [10]; 2.49 ± 0.11 h under setting [2]; 1.93 ± 0.17 h under setting [11]. Also, the “total protein half-life in vivo” value was determined as 4.53 ± 1.2 h under setting [3]; 7.26 ± 0.99 h under setting [4]; 2.85 h under setting [5]; 3.09 ± 0.045 h under setting [6]; 3.4 ± 0.06 h under setting [12]; 7.2 ± 0.65 h under setting [7].

Source of the values: the supplement of paper PMC11246515.
